Read-outs that look alike come from different tables or passages of the source.
Tests used:
[1] = target: P84S variant of the truncated E. coli SPase (Δ2-75) (Escherichia coli K-12 MG1655) (UniProt P00803); experiment: steady state binding by the increase of arylomycin fluorescence (ex 320 nm, em 410 nm) with soluble N-terminally truncated E. coli SPase
[2] = target: truncated wild type E. coli SPase that lacks the N-terminal membrane helices (Δ2-75) (Escherichia coli K-12 MG1655) (UniProt P00803); experiment: as above
[3] = target: full-length His-tagged S. aureus SPase (SpsB), wild type (Staphylococcus aureus NCTC 8325); experiment: steady-state binding by increase of arylomycin fluorescence, full-length SPase, buffer with 10% glycerol
[4] = target: full-length His-tagged S. aureus SPase (SpsB), P29S mutant (Staphylococcus aureus NCTC 8325); experiment: as above
[5] = target: E. coli MG1655 SPase (LepB) with Asp at residue 84, in the strain (Escherichia coli K-12 MG1655) (UniProt P00803); experiment: cell-based or functional assay
[6] = target: E. coli MG1655 SPase (LepB) with Gly at residue 84, in the strain (Escherichia coli K-12 MG1655) (UniProt P00803); experiment: cell-based or functional assay
[7] = target: E. coli MG1655 SPase (LepB) with Met at residue 84, in the strain (Escherichia coli K-12 MG1655) (UniProt P00803); experiment: cell-based or functional assay
[8] = target: E. coli MG1655 SPase (LepB) with His at residue 84, in the strain (Escherichia coli K-12 MG1655) (UniProt P00803); experiment: cell-based or functional assay
[9] = target: P. aeruginosa PAO1 SPase (LepB) P84L, in the strain lepB(P84L) P. aeruginosa PAO1 (Pseudomonas aeruginosa PAO1) (UniProt Q9I5G7); experiment: cell-based or functional assay
[10] = target: E. coli MG1655 SPase (LepB) with Cys at residue 84, in the strain (Escherichia coli K-12 MG1655) (UniProt P00803); experiment: cell-based or functional assay
[11] = target: S. aureus SPase (SpsB) P29S, in strain PAS8001 (Staphylococcus aureus NCTC 8325); experiment: cell-based or functional assay
[12] = target: E. coli SPase (LepB) P84S, in strain PAS0232 (Escherichia coli K-12 MG1655) (UniProt P00803); experiment: cell-based or functional assay
[13] = target: E. coli MG1655 SPase (LepB), wild type, in the strain (Escherichia coli K-12 MG1655) (UniProt P00803); experiment: cell-based or functional assay
[14] = target: E. coli MG1655 SPase (LepB) with Asn at residue 84, in the strain (Escherichia coli K-12 MG1655) (UniProt P00803); experiment: cell-based or functional assay
[15] = target: S. epidermidis SpsIB S31P, in strain PAS9002 (Staphylococcus epidermidis RP62A); experiment: cell-based or functional assay
[16] = target: E. coli MG1655 SPase (LepB) with Arg at residue 84, in the strain (Escherichia coli K-12 MG1655) (UniProt P00803); experiment: cell-based or functional assay
[17] = target: P. aeruginosa PAO1 SPase (LepB), wild type, in the strain (Pseudomonas aeruginosa PAO1) (UniProt Q9I5G7); experiment: cell-based or functional assay
[18] = target: E. coli MG1655 SPase (LepB) with Trp at residue 84, in the strain (Escherichia coli K-12 MG1655) (UniProt P00803); experiment: cell-based or functional assay
[19] = target: S. epidermidis SpsIB S29P, in strain PAS9001 (Staphylococcus epidermidis RP62A); experiment: cell-based or functional assay
[20] = target: E. coli MG1655 SPase (LepB) with Ile at residue 84, in the strain (Escherichia coli K-12 MG1655) (UniProt P00803); experiment: cell-based or functional assay
[21] = target: E. coli MG1655 SPase (LepB) with Tyr at residue 84, in the strain (Escherichia coli K-12 MG1655) (UniProt P00803); experiment: cell-based or functional assay
[22] = target: E. coli MG1655 SPase (LepB) with Thr at residue 84, in the strain (Escherichia coli K-12 MG1655) (UniProt P00803); experiment: cell-based or functional assay
[23] = target: S. aureus NCTC 8325 SPase (SpsB), wild type, in the strain (Staphylococcus aureus NCTC 8325); experiment: cell-based or functional assay
[24] = target: E. coli MG1655 SPase (LepB) with Phe at residue 84, in the strain (Escherichia coli K-12 MG1655) (UniProt P00803); experiment: cell-based or functional assay
[25] = target: E. coli MG1655 SPase (LepB) with Ala at residue 84, in the strain (Escherichia coli K-12 MG1655) (UniProt P00803); experiment: cell-based or functional assay
[26] = target: S. epidermidis RP62A signal peptidase IB (SpsIB), wild type, in the strain (Staphylococcus epidermidis RP62A); experiment: cell-based or functional assay
[27] = target: P. aeruginosa SPase (LepB) P84S, in strain PAS2006 (Pseudomonas aeruginosa PAO1) (UniProt Q9I5G7); experiment: cell-based or functional assay
[28] = target: E. coli MG1655 SPase (LepB) with Glu at residue 84, in the strain (Escherichia coli K-12 MG1655) (UniProt P00803); experiment: cell-based or functional assay
[29] = target: E. coli MG1655 SPase (LepB) with Lys at residue 84, in the strain (Escherichia coli K-12 MG1655) (UniProt P00803); experiment: cell-based or functional assay
[30] = target: E. coli MG1655 SPase (LepB) with Leu at residue 84, in the strain (Escherichia coli K-12 MG1655) (UniProt P00803); experiment: cell-based or functional assay
[31] = target: E. coli MG1655 SPase (LepB) with Gln at residue 84, in the strain (Escherichia coli K-12 MG1655) (UniProt P00803); experiment: cell-based or functional assay
[32] = target: E. coli MG1655 SPase (LepB) with Val at residue 84, in the strain (Escherichia coli K-12 MG1655) (UniProt P00803); experiment: cell-based or functional assay
[33] = target: P84S variant of the truncated E. coli SPase (Δ2-75) (Escherichia coli K-12 MG1655) (UniProt P00803); experiment: steady-state binding by increase of arylomycin fluorescence (ex 320 nm, em 410 nm), SPase in n-octyl-β-glucopyranoside micelles
[34] = target: truncated wild type E. coli SPase that lacks the N-terminal membrane helices (Δ2-75) (Escherichia coli K-12 MG1655) (UniProt P00803); experiment: as above
[35] = target: E. coli MG1655 SPase (LepB) with His at residue 84, in the strain (Escherichia coli K-12 MG1655) (UniProt P00803); experiment: cell-based or functional assay; remark: listed apart in the source
[36] = target: E. coli MG1655 SPase (LepB) with Phe at residue 84, in the strain (Escherichia coli K-12 MG1655) (UniProt P00803); experiment: cell-based or functional assay; remark: listed apart in the source
[37] = target: detergent-solubilized full-length His-tagged E. coli SPase, wild type (Escherichia coli) (UniProt P00803); experiment: equilibrium binding by the increase of arylomycin fluorescence (ex 320 nm, em 410 nm) with detergent-solubilized full-length E. coli SPase
[38] = target: detergent-solubilized full-length His-tagged E. coli SPase, P84S variant (Escherichia coli) (UniProt P00803); experiment: as above
[39] = target: full-length His-tagged S. aureus SPase (SpsB), wild type (Staphylococcus aureus NCTC 8325); experiment: equilibrium binding by the increase of arylomycin fluorescence (ex 320 nm, em 410 nm) with full-length His-tagged S. aureus SPase
[40] = target: full-length His-tagged S. aureus SPase (SpsB), P29S mutant (Staphylococcus aureus NCTC 8325); experiment: as above
[41] = target: detergent-solubilized full-length His-tagged E. coli SPase, wild type (Escherichia coli) (UniProt P00803); experiment: steady-state binding by increase of arylomycin fluorescence, detergent-solubilized full-length SPase
[42] = target: detergent-solubilized full-length His-tagged E. coli SPase, P84S variant (Escherichia coli) (UniProt P00803); experiment: as above

With arylomycin C16 (peptide) the EC50 (read off the curve) [1] was 100 nM, the EC50 (read off the curve) [2] was 2000 nM and the Kd [3] was 1280 nM. It also gave a Kd [4] of 130 nM, an MIC of arylomycin C16 for the E. coli strain with this residue 84 [5] of less than 16 µg/mL and an MIC of arylomycin C16 for the E. coli strain with this residue 84 [6] of less than 16 µg/mL. The MIC of arylomycin C16 for the E. coli strain with this residue 84 [7] was less than 16 µg/mL, the MIC of arylomycin C16 for the E. coli strain with this residue 84 [8] was less than 16 µg/mL and the MIC (µg/ml) of arylomycin C16 for the sensitive P. aeruginosa strain [9] was 8 µg/mL. For the same substance, the MIC of arylomycin C16 for the E. coli strain with this residue 84 [10] was less than 16 µg/mL, the MIC (µg/mL) of arylomycin C16 for the strain [11] was 2 µg/mL and the MIC (µg/ml) of arylomycin C16 for the sensitive S. aureus strain [11] was 2 µg/mL. For the same substance, the MIC (µg/mL) of arylomycin C16 for the strain [12] was 2 µg/mL, the MIC of arylomycin C16 for the E. coli strain with this residue 84 [12] was less than 16 µg/mL and the MIC (µg/mL) of arylomycin C16 for the strain [13] was greater than 128 µg/mL. For the same substance, the MIC (µg/ml) of arylomycin C16 for the resistant E. coli strain [13] was greater than 64 µg/mL, the MIC of arylomycin C16 for the E. coli strain with this residue 84 [13] was greater than 256 µg/mL and the MIC of arylomycin C16 for the E. coli strain with this residue 84 [14] was less than 16 µg/mL. The MIC (µg/mL) of arylomycin C16 for the strain [15] was greater than 128 µg/mL, the fold elevation of the MIC over the wild type strain [15] was greater than 256 fold and the MIC of arylomycin C16 for the E. coli strain with this residue 84 [16] was less than 16 µg/mL. The MIC (µg/mL) of arylomycin C16 for the strain [17] was greater than 128 µg/mL, the MIC (µg/ml) of arylomycin C16 for the resistant P. aeruginosa strain [17] was greater than 64 µg/mL and the MIC of arylomycin C16 for the E. coli strain with this residue 84 [18] was less than 16 µg/mL. For the same substance, the MIC (µg/mL) of arylomycin C16 for the strain [19] was 8 µg/mL, the MIC (µg/ml) of arylomycin C16 for the resistant S. epidermidis strain [19] was 8 µg/mL and the fold elevation of the MIC over the wild type strain [19] was 32 fold. For the same substance, the MIC of arylomycin C16 for the E. coli strain with this residue 84 [20] was less than 16 µg/mL, the MIC of arylomycin C16 for the E. coli strain with this residue 84 [21] was less than 16 µg/mL and the MIC of arylomycin C16 for the E. coli strain with this residue 84 [22] was less than 16 µg/mL. For the same substance, the MIC (µg/mL) of arylomycin C16 for the strain [23] was greater than 128 µg/mL, the MIC (µg/ml) of arylomycin C16 for the resistant S. aureus strain [23] was greater than 64 µg/mL and the MIC of arylomycin C16 for the E. coli strain with this residue 84 [24] was less than 16 µg/mL. It also gave an MIC of arylomycin C16 for the E. coli strain with this residue 84 [25] of less than 16 µg/mL, an MIC (µg/mL) of arylomycin C16 for the strain [26] of 0.25 µg/mL and an MIC (µg/ml) of arylomycin C16 for the sensitive S. epidermidis strain [26] of 0.5 µg/mL. For the same substance, the MIC (µg/mL) of arylomycin C16 for the strain [27] was 8 µg/mL, the MIC of arylomycin C16 for the E. coli strain with this residue 84 [28] was less than 16 µg/mL and the MIC of arylomycin C16 for the E. coli strain with this residue 84 [29] was less than 16 µg/mL. For the same substance, the MIC (µg/ml) of arylomycin C16 for the sensitive E. coli strain [30] was 0.5 µg/mL, the MIC of arylomycin C16 for the E. coli strain with this residue 84 [30] was less than 16 µg/mL and the MIC of arylomycin C16 for the E. coli strain with this residue 84 [31] was less than 16 µg/mL. The MIC of arylomycin C16 for the E. coli strain with this residue 84 [32] was less than 16 µg/mL, the Kd [33] was 39 nM and the Kd [34] was 979 nM. For the same substance, the MIC of arylomycin C16 for the E. coli strain with this residue 84 [35] was 4 µg/mL, the MIC of arylomycin C16 for the E. coli strain with this residue 84 [36] was 2 µg/mL and the EC50 (read off the curve) [37] was 100 nM. For the same substance, the EC50 (read off the curve) [38] was 10 nM, the Kd [38] was 5.73 nM and the EC50 (read off the curve) [39] was 2000 nM. The EC50 (read off the curve) [40] was 200 nM, the Kd [41] was 60 nM and the Kd [42] was 5.7 nM.

From patent US20130281360A1
